Measured values: IntAct's records for PubMed 22089237

B1: Alpha-1A adrenergic receptor (Homo sapiens), P35348 (parent)
chain: MVFLSGNASDSSNCTQPPAPVNISKAILLGVILGGLILFGVLGNILVILSVACHRHLHSVTHYYIVNLAVADLLLTSTVLPFSAIFEVLGYWAFGRVFCNIWAAVDVLCCTASIMGLCIISIDRYIGVSYPLRYPTIVTQRRGLMALLCVWALSLVISIGPLFGWRQPAPEDETICQINEEPGYVLFSALGSFYLPLAIILVMYCRVYVVAKRESRGLKSGLKTDKSDSEQVTLRIHRKNAPAGGSGMASAKTKTHFSVRLLKFSREKKAAKTLGIVVGCFVLCWLPFFLVMPIGSFFPDFKPSETVFKIVFWLGYLNSCINPIIYPCSSQEFKKAFQNVLRIQCLCRKQSSKHALGYTLHPPSQAVEGQHKDMVRIPVGSRETFYRISKTDGVCEWKFFSSMPRGSARITVSKDQSSCTTARVRSKSFLQVCCCVGPSTPSLDKNHQVPTIKVHTISLSENGEEV

Variants of: B1
Conditions: with arrb1_rat Arrb1, P29066
Chain of arrb1_rat Arrb1, P29066 (P29066 whole entry): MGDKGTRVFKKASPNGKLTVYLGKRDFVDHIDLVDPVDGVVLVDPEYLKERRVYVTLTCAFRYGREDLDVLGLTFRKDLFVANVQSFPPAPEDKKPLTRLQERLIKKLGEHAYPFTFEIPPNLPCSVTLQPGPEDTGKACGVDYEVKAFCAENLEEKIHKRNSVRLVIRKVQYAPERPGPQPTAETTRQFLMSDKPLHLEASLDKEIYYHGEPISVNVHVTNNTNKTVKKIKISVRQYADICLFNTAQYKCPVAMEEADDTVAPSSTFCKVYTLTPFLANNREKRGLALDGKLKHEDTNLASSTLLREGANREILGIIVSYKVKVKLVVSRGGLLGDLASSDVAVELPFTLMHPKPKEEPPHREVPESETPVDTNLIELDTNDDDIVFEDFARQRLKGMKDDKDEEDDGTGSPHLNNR

effect of a mutation on the interaction	Variant
increasing interaction strength	MVFLSGNASDSSNCTQPPAPVNISKAILLGVILGGLILFGVLGNILVILSVACHRHLHSVTHYYIVNLAVADLLLTSTVLPFSAIFEVLGYWAFGRVFCNIWAAVDVLCCTASIMGLCIISIDRYIGVSYPLRYPTIVTQRRGLMALLCVWALSLVISIGPLFGWRQPAPEDETICQINEEPGYVLFSALGSFYLPLAIILVMYCRVYVVAKRESRGLKSGLKTDKSDSEQVTLRIHRKNAPAGGSRMASAKTKTHFSVRLLKFSREKKAAKTLGIVVGCFVLCWLPFFLVMPIGSFFPDFKPSETVFKIVFWLGYLNSCINPIIYPCSSQEFKKAFQNVLRIQCLCRKQSSKHALGYTLHPPSQAVEGQHKDMVRIPVGSRETFYRISKTDGVCEWKFFSSMPRGSARITVSKDQSSCTTARVRSKSFLQVCCCVGPSTPSLDKNHQVPTIKVHTISLSENGEEV [G247R]
